Experimental data taken from patent publication US20220135701A1 (Genentech, published 2022).
Where two headings read alike, the source gives them in different places.

How the values were obtained:
Assay in all cases: cell-based or functional assay
[1] = target: T1, human MerTK on human macrophages (human, UniProt Q12866 21-999)
T1 sequence: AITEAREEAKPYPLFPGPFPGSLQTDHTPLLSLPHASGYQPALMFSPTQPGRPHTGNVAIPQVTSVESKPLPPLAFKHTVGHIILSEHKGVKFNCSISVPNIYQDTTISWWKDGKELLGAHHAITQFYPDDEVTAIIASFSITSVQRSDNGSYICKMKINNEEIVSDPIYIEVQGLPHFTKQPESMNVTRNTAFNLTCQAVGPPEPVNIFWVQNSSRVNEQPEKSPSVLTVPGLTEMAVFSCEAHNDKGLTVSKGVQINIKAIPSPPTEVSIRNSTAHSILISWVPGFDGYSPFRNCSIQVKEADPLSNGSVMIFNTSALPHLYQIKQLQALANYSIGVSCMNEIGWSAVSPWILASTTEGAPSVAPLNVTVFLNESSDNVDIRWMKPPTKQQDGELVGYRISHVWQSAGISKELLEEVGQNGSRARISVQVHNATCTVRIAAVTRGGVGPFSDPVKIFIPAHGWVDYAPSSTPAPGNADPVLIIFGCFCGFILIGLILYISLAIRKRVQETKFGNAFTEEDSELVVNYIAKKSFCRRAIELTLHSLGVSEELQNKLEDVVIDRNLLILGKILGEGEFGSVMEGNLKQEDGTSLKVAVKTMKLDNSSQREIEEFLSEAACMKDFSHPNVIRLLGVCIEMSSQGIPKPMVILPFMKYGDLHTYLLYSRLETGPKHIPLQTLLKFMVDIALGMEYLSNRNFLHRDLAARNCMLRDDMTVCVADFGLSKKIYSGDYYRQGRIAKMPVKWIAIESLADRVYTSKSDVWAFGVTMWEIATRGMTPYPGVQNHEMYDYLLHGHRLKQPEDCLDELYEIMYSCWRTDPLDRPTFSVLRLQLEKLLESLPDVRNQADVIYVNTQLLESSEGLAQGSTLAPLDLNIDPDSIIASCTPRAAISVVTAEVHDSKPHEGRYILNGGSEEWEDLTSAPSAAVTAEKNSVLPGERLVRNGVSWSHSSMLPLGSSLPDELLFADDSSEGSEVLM

[2] = target: T2, mouse MerTK on mouse macrophages (mouse, UniProt Q60805 19-994)
T2 sequence (looked up): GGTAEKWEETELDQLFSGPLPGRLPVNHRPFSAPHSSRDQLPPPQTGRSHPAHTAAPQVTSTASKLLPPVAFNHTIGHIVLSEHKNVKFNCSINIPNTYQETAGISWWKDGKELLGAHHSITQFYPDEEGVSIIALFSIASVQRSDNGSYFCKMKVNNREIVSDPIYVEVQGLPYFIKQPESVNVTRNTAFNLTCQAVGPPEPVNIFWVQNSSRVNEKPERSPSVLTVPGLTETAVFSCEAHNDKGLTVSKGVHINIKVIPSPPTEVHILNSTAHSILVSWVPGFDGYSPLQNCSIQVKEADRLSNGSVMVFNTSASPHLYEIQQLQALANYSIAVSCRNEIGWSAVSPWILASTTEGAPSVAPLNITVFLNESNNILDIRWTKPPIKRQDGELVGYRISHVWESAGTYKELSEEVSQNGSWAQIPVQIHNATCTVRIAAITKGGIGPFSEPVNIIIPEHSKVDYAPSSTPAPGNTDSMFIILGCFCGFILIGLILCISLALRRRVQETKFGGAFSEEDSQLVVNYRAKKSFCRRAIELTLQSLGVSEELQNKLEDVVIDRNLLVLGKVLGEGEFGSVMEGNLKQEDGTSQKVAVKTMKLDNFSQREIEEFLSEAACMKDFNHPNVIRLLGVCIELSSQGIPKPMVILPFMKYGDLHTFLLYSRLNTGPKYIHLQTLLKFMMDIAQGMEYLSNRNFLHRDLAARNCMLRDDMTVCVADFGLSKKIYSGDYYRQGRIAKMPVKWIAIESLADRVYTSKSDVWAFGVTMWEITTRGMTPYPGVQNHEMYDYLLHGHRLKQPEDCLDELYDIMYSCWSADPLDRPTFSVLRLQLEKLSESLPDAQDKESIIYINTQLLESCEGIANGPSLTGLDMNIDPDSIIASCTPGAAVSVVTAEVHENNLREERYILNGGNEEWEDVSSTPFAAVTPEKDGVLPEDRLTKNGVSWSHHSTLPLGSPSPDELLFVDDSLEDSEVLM

[3] = target: T1, human MerTK on human macrophages; remark: listed apart in the source

IC50 (nM), efferocytosis by human macrophages, Average (3 Donors) [1]: 0.41 nM | IC50 (nM), efferocytosis by mouse macrophages, Average [2]: 0.91 nM | IC50 (nM), efferocytosis by human macrophages, Average (3 Donors) [3]: 0.41 nM | IC50 (nM), efferocytosis by human macrophages, Donor A [3]: 0.42 nM | IC50 (nM), efferocytosis by human macrophages, Donor B [3]: 0.53 nM | IC50 (nM), efferocytosis by human macrophages, Donor C [3]: 0.27 nM | Max Inhibition (%), efferocytosis by human macrophages, Average (3 Donors) [3]: 69% | Max Inhibition (%), efferocytosis by human macrophages, Donor A [3]: 76% | Max Inhibition (%), efferocytosis by human macrophages, Donor B [3]: 73% | Max Inhibition (%), efferocytosis by human macrophages, Donor C [3]: 60%
B1: h10F7.v16 (antibody, V domains shown)
VH: EVQLVESGGGLVQPGGSLRLSCAVSGFSLSGYAMSWVRQAPGKGLEYIGVISSSGSSYYPSWAKGRFTISKDNSKNTLYLQMGSLRAEDMAVYYCARVQFYVGYAVYGYGIIDRLDLWGQGTLVTVSS
VL: DIVLTQSPDSLAVSLGERATINCQSSKSVYNNNWLSWYQQKPGQPPKLLIYRASTLESGVPDRFSGSGSGTDFTLTISSLQAEDVAVYFCAGGYSSSSSANAFGGGTKVEIK
notes: Humanized, human IgG1; also called 10F7 Fully Humanized; 10F7 Humanized polished mAb
